Results taken from patent US20260055369A1 (H LEE MOFFITT CANCER CENTER AND RESEARCH INSTITUTE, published 2026).
Numbering of substitutions follows the chain as printed.

How the values were obtained:
[1] = molecular target: T1, Notch1 on CHO-K1 N1-Gal4 fluorescent reporter cells (UniProt P46531 19-2555, limits assumed); assay: cell-based or functional assay
[2] = molecular target: T1, Notch1 on CHO-K1 N1-Gal4 fluorescent …; assay: flow cytometry, ligand tetramers on Notch1-overexpressing CHO-K1 N1-Gal4 cells
[3] = molecular target: Notch1 on U2OS hNotch1-Gal4 luciferase reporter cells (human, UniProt P46531 19-2555); assay: cell-based or functional assay
Chain of Notch1 on U2OS hNotch1-Gal4 luciferase reporter cells (P46531 19-2555): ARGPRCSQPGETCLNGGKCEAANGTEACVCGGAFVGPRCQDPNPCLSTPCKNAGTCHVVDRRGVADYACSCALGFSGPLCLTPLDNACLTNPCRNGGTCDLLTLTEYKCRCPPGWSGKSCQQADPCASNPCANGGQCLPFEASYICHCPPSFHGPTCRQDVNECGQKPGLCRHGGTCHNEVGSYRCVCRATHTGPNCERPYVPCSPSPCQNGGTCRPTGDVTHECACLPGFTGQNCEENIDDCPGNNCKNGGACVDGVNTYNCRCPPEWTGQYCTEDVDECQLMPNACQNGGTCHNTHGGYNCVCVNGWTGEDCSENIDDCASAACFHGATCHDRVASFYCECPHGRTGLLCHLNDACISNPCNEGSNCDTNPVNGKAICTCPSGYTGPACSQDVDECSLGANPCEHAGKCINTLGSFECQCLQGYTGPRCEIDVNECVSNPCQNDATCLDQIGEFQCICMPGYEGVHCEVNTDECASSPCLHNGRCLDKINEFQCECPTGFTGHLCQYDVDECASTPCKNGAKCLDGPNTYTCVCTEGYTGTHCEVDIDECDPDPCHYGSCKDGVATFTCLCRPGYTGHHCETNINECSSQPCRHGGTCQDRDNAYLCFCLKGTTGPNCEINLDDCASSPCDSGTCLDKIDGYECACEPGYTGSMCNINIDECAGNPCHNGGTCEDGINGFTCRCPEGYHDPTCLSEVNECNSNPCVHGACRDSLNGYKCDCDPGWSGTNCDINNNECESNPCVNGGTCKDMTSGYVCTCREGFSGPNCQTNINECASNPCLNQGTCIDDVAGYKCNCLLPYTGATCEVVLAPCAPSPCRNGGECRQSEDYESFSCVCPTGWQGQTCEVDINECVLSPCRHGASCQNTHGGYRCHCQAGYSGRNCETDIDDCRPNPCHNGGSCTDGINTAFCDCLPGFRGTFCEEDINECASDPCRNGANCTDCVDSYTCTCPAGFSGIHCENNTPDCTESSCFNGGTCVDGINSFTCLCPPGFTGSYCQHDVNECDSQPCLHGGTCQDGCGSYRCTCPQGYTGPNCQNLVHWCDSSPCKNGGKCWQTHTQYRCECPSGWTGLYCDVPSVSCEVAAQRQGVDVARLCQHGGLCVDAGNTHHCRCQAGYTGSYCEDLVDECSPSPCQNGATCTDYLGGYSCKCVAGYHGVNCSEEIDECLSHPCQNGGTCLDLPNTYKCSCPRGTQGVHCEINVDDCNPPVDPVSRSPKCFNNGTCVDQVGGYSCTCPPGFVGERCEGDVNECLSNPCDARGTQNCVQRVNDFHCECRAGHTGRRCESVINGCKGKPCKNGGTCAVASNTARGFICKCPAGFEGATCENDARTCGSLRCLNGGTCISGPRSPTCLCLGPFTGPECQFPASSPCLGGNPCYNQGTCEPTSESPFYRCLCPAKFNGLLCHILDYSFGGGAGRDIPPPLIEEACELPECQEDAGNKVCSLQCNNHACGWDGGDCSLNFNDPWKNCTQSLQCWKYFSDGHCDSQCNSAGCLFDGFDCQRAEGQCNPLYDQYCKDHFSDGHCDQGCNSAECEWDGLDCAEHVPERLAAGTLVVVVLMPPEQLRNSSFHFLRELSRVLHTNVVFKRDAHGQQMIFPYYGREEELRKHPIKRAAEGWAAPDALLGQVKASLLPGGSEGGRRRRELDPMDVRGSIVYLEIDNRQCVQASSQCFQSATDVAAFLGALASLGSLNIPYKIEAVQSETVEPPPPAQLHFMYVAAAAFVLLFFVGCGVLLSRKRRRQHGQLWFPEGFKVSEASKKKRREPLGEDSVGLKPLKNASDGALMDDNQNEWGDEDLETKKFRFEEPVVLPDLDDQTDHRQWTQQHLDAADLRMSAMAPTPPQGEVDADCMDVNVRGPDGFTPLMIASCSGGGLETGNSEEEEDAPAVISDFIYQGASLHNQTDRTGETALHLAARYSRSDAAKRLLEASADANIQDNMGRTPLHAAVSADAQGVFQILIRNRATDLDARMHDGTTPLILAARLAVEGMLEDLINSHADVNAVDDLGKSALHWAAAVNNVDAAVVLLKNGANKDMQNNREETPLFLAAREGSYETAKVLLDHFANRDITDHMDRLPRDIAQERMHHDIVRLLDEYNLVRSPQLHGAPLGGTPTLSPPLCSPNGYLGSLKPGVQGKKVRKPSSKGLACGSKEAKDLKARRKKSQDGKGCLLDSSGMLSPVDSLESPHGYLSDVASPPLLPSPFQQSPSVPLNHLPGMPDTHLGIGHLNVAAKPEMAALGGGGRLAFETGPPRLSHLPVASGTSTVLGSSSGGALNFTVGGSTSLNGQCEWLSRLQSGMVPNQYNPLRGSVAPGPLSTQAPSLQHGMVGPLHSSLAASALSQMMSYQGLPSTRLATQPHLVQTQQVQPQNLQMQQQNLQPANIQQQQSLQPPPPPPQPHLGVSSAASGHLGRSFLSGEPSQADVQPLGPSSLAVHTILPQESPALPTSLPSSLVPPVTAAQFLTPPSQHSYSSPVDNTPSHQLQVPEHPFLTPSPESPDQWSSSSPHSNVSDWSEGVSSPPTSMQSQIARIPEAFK

[4] = molecular target: Notch2 on U2OS Notch2-Gal4 luciferase reporter cells (human, UniProt Q04721 26-2471); assay: cell-based or functional assay
Chain of Notch2 on U2OS Notch2-Gal4 luciferase reporter cells (Q04721 26-2471): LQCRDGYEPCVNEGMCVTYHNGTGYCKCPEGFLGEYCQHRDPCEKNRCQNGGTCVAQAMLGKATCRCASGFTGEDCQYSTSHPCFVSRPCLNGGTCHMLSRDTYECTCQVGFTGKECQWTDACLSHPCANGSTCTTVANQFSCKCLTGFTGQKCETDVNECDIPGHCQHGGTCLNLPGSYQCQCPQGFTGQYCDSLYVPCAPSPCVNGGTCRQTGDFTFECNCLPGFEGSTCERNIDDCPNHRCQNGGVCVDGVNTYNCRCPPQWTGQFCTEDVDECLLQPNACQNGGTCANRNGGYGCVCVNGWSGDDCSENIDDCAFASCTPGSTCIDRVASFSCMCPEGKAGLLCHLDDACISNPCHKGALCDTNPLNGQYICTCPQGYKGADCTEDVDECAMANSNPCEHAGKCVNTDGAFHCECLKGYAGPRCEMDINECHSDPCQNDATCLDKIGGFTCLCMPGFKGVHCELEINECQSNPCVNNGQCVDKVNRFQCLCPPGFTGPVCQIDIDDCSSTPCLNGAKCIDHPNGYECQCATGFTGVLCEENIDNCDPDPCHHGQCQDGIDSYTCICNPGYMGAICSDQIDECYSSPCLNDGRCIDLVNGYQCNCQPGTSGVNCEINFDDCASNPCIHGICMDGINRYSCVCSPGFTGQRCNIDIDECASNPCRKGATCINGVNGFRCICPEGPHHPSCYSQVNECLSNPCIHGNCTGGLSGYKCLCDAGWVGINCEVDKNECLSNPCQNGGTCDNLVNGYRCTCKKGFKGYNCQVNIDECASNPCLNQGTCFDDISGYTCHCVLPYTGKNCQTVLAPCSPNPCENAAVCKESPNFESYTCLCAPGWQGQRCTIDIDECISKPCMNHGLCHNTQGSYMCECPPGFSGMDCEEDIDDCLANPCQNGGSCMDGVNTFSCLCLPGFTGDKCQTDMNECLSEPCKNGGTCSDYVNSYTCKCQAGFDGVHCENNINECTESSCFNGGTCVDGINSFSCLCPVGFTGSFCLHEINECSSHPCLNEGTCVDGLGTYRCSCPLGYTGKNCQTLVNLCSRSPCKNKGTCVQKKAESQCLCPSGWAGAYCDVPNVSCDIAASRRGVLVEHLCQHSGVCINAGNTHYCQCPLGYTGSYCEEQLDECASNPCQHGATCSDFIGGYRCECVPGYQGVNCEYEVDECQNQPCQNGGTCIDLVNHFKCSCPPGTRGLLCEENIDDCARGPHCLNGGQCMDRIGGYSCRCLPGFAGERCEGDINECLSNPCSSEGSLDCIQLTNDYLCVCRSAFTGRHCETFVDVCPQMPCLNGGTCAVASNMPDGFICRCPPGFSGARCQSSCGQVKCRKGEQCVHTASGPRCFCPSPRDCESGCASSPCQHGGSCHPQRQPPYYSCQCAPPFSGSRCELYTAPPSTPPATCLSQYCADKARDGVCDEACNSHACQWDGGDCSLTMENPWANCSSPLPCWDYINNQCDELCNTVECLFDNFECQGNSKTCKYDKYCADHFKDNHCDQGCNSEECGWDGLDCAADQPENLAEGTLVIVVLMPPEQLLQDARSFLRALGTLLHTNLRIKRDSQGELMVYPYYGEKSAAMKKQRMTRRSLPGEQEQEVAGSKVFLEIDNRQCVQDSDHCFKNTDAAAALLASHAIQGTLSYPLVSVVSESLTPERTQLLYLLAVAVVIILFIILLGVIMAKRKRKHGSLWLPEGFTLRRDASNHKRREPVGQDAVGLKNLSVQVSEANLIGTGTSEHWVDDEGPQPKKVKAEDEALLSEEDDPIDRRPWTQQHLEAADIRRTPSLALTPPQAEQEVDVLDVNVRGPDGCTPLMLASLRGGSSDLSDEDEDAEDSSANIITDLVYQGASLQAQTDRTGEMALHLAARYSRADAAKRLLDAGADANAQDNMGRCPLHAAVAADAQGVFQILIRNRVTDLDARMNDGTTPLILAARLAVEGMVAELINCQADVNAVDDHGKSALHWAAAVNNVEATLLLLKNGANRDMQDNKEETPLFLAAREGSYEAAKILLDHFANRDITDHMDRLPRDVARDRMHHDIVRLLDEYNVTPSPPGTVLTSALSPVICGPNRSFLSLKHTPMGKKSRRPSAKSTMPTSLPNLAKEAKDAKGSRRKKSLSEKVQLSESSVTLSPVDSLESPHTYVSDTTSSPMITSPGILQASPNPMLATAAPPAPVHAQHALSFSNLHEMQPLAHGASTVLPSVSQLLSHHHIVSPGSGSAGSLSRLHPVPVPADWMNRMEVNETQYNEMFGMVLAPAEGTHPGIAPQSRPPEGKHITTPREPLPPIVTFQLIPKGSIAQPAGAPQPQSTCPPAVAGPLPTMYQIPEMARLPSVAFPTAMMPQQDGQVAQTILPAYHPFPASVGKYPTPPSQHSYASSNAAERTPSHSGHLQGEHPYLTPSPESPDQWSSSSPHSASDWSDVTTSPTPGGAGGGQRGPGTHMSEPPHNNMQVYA

[5] = molecular target: Notch3 on U2OS Notch3-Gal4 luciferase reporter cells (human, UniProt Q9UM47 40-2321); assay: cell-based or functional assay
[6] = molecular target: T2, mouse Notch1 (EGF6-13, residues 221-526), biotinylated (mouse, UniProt Q01705 221-526, Biotinylated in vitro by BirA at the C-terminal BAP-tag (tag not in the letters).); assay: SPR steady-state binding isotherm, biotinylated mNotch1 (EGF6-13) on a streptavidin chip, DLL4 variant as analyte, response normalized to the maximum (100%)
T2 construct: Immobilised on a streptavidin chip for SPR; also called mNotch1 EGF6-13; mNotch1 (6-13)
T2 sequence: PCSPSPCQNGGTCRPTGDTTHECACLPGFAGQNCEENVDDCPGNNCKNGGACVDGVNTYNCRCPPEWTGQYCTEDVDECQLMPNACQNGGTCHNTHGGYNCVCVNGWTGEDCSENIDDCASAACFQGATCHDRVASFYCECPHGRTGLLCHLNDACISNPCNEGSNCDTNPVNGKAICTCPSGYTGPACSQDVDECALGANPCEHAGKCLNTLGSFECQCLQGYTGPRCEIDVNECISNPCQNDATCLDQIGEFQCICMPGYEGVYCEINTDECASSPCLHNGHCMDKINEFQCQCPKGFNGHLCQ
Excerpt: Extended Data FIG. 5. Quantitation of mNotch1 binding to DLL4 variants, ligand adsorption, and Notch surface expression. a, SPR binding isotherms were fitted to a 1:1 binding model to determine the binding affinity between mNotch1 (6-13) and each DLL4 variant. b, Determination of plate adsorption for WT DLL4 and Delta^MAX by ELISA. Data represent mean values±s.d. of three biological replicates. c, Binding assay of WT DLL4 and Delta^MAX tetramers to Notch1 overexpressing CHO-K1 N1-Gal4 cells was measured by flow cytometry. Data represent mean values±s.d. of three biological replicates. d, The level of Notch1 expression on the surface of cell lines used in this study was determined by flow cytometry. Data represent mean values±s.d. of three biological replicates. e, Percentage of CD8⁺ T cells expressing Notch1 (upper graph) and Notch2 (bottom graph) on cell surface determined by flow cytometry after stimulation with K32-WT DLL4, K32-Delta^MAX, or K32 for 96 hours. Data represent mean values±s.e.m. of three biological replicates. Delta^MAX statistics are referred to WT DLL4. *P<0.05, ****P<0.0001 (Two-way ANOVA).
Equilibrium dissociation constants were determined by surface plasmon resonance using a Biacore T200 instrument (GE Healthcare). […]

T1 sequence (P46531 19-2555 limits assumed): as the sequence (P46531 19-2555) above

B1: human wild-type DLL4 (N-EGF5, residues 27-400), non-biotinylated (ligand)
chain: SGVFQLQLQEFINERGVLASGRPCEPGCRTFFRVCLKHFQAVVSPGPCTFGTVSTPVLGTNSFAVRDDSSGGGRNPLQLPFNFTWPGTFSLIIEAWHAPGDDLRPEALPPDALISKIAIQGSLAVGQNWLLDEQTSTLTRLRYSYRVICSDNYYGDNCSRLCKKRNDHFGHYVCQPDGNLSCLPGWTGEYCQQPICLSGCHEQNGYCSKPAECLCRPGWQGRLCNECIPHNGCRHGTCSTPWQCTCDEGWGGLFCDQDLNYCTHHSPCKNGATCSNSGQRSYTCTCRPGYTGVDCELELSECDSNPCRNGGSCKDQEDGYHCLCPPGYYGLHCEHSTLSCADSPCFNGGSCRERNQGANYACECPPNFTGSNCEHHHHHHHH
[1]
  EC50 of Notch1 activation, fluorescent reporter cells, ligand non-specifically adsorbed to plates: 2.3 ng/mm^2

B2: WT DLL4 (N-EGF5, residues 27-400), C-terminally biotinylated (ligand)
chain: SGVFQLQLQEFINERGVLASGRPCEPGCRTFFRVCLKHFQAVVSPGPCTFGTVSTPVLGTNSFAVRDDSSGGGRNPLQLPFNFTWPGTFSLIIEAWHAPGDDLRPEALPPDALISKIAIQGSLAVGQNWLLDEQTSTLTRLRYSYRVICSDNYYGDNCSRLCKKRNDHFGHYVCQPDGNLSCLPGWTGEYCQQPICLSGCHEQNGYCSKPAECLCRPGWQGRLCNECIPHNGCRHGTCSTPWQCTCDEGWGGLFCDQDLNYCTHHSPCKNGATCSNSGQRSYTCTCRPGYTGVDCELELSECDSNPCRNGGSCKDQEDGYHCLCPPGYYGLHCEHSTLSCADSPCFNGGSCRERNQGANYACECPPNFTGSNCEGLNDIFEAQKIEWHE
modifications: biotin on the C-terminal BAP-tag (BirA ligase)
[1]
  EC50 of Notch1 activation, fluorescent reporter cells, biotinylated ligand on streptavidin plates: 16 nM

B3: DLL4^MAX (N-EGF5, residues 27-400), C-terminally biotinylated (ligand)
chain: B2 chain with G2S, F81L, I117F, H168Y, L180P, N231P, T245L, F254Y, S275R, Q279P
modifications: biotin on the C-terminal BAP-tag (BirA ligase)
notes: Used coupled to streptavidin (plates, beads, or as tetramers for cell staining); also called biotinylated Delta^MAX; C-terminally anchored Delta^MAX; not shown: His-tag
[2]
  fold increase of MFI compared to WT DLL4: 4.7 fold
[1]
  EC50 of Notch1 activation, fluorescent reporter cells, biotinylated ligand on streptavidin plates: 1.7 nM
  Notch1 reporter activity with 25 µm coated beads, against DLL4 microbeads: 4.5 fold
[3]
  increase in Notch1 activation relative to control, Delta^MAX-coated streptavidin beads: 21 fold
  increase in Notch1 activation relative to control, oriented coupling on streptavidin plates: 50 fold
  luciferase reporter signalling at 50 nM immobilised ligand, against WT DLL4: 2 fold
[4]
  luciferase reporter signalling at 50 nM immobilised ligand, against WT DLL4: 2.5 fold
[5]
  luciferase reporter signalling at 50 nM immobilised ligand, against WT DLL4: 3 fold

B4: DLL4.v1 (N-EGF5), non-biotinylated (ligand)
chain: B1 chain with G2S, F81L, I117F, H168Y, L180P
notes: also called human DLL4 with the five E12 mutations (Site 1+Site 2)
[6]
  EC50 (read off the curve): ~100 nM
